Results as given in article PMC6491433 (2019).
Blank lines part the entries; values can stand above or below the binder they belong to.

What was measured:
H-NS = target: T1, H-NS (Escherichia coli, UniProt P0ACF8); experiment: fluorescence anisotropy
T1 chain: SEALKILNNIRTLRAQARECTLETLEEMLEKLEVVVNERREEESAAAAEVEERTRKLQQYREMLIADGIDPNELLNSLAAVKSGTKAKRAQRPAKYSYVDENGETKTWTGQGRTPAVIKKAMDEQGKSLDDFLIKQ

Cnu (E. coli) [1] = experiment: other fluorescence titration; ~2 uM Cnu with ~30 nM to ~140 uM H-NS; W67 emission on excitation at 295 nm, intensity-averaged wavenumber; Hill fit; apparent; 500 mM ionic strength, sodium phosphate pH 8.0; temperatures from 5 to 37 °C
[2] = target: H-NSW, variant of H-NS with a tryptophan at its C-terminus (E. coli) (UniProt P0ACF8); experiment: fluorescence polarisation; steady-state tryptophan anisotropy; 2 uM H-NSW with ~30 nM to ~140 uM H-NS (tyrosine variant); excitation 295 nm; 170 mM ionic strength, 5 °C and 37 °C; apparent; fit to monomer-dimer (1:1) equilibrium
Cnu (E. coli) [3] = experiment: other fluorescence titration; ~2 uM Cnu with ~30 nM to ~140 uM H-NS; W67 emission on excitation at 295 nm, intensity-averaged wavenumber; Hill fit; apparent; 170 mM ionic strength, sodium phosphate pH 8.0; temperatures from 5 to 37 °C

Kd (H-NS): ~125 µM
B1: Cnu (protein)
chain: MTVQDYLLKFRKISSLESLEKLYDHLNYTLTDDQELINMYRAADHRRAELVSGGRLFDLGQVPKSVWHYVQ

K1/2 (Cnu (E. coli) [1]): 100 µM | Kd [2]: 100 to 150 µM | minimum oligomerization concentration [2]: 10 µM | fold increase in affinity against 500 mM IS (Cnu (E. coli) [3]): 4 fold
B2: H-NS (residues 1-59 of the N-terminal domain), the tyrosine variant (domain or fragment)
chain: MSEALKILNNIRTLRAQARESTLETLEEMLEKLEVVVNERREEESAAAAEVEERTRKLY
